Data published in PMC3327674, “Structural and Functional Characterization of Mature Forms of Metalloprotease E495 from Arctic Sea-Ice Bacterium Pseudoalteromonas sp. SM495” (PLoS ONE, 2012).
pKd: −log10 of the molar value.

Legend:
[1] = target: GST-fused PPC1 domain of metalloprotease E495 (Pseudoalteromonas sp. SM495); experiment: pull-down; GST-fused PPC domain (or mutant) attached to glutathione-agarose resin; 0.1 mg/ml CPC or casein added, 4°C, 12 h with shaking; substrate remaining in the supernatant analysed by 12.5% SDS-PAGE and ImageJ
[2] = target: GST-fused PPC12 (PPC1 and PPC2 domains) of metalloprotease E495 (Pseudoalteromonas sp. SM495); experiment: as above
[3] = target: GST-fused PPC2 domain of metalloprotease E495 (Pseudoalteromonas sp. SM495); experiment: as above
[4] = target: C-phycocyanin (Synechocystis sp. strain PCC6803) (UniProt Q54715); experiment: SPR; BIACORE 3000, 25°C; CPC amine-coupled on a CM5 chip; PPC domains 0.25-8 µM at 30 µl/min; regeneration with 20 mM NaOH; global fits, BIAevaluation 4.1
C-phycocyanin (Synechocystis sp. strain PCC6803), sequence (Q54715 whole entry, chain 1 of 2, other chains not shown, the tested form may be a part): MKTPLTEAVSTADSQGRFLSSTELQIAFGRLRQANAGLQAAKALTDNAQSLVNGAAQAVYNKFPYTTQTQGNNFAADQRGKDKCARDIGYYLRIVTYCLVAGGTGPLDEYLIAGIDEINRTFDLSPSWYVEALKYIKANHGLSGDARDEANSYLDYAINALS

“C-phycocyanin (from UniProt Q54715 1-162; Q54714 1-172) (complex)” was tested, and the percent bound [1] was 30%, the percent bound [2] was 30% and the percent bound [3] was 30%.

With “E495-M (mature form of metalloprotease E495 containing only the catalytic domain) (enzyme)” the K m of α-casein hydrolysis at 50°C (non-linear fit, Michaelis-Menten) (alpha casein) was 67 µM.

In the case of “E495-M-C1 (mature form of metalloprotease E495 containing the catalytic domain and the PPC1 domain) (enzyme)”, the K m of α-casein hydrolysis at 50°C (non-linear fit, Michaelis-Menten) (alpha casein) was 18 µM.

“GST-fused PPC1 domain of metalloprotease E495 (domain or fragment)” gave a pKd [4] of 6.11, a koff [4] of 0.0158 s⁻¹ and a kon [4] of 20400 M⁻¹ s⁻¹.

In the case of “GST-fused PPC2 domain of metalloprotease E495 (domain or fragment)”, the pKd [4] was 5.61, the koff [4] was 0.0162 s⁻¹ and the kon [4] was 6560 M⁻¹ s⁻¹.

alpha casein (natural protein) was tested, and the percent bound [1] was 30%, the percent bound [2] was 30% and the percent bound [3] was 30%.
